Tests used:
[1] = target: GFP::CDK5RAP2 isoform B (full-length, wild type) (human) (UniProt Q96SN8); experiment: partitioning into in vitro scaffolds, confocal fluorescence microscopy; 4-component asters: 167nm GFP::CDK5RAP2, 33nM mBFP::γ-TuRCs, 33nM mCherry::HSET, 13μM HiLyte-647-labeled α/β tubulin; 50mM KCl, 25mM HEPES, pH7.4, IgM+; no ATP·MgCl2; compared with 3-component asters
[2] = target: T1, GFP::CDK5RAP2 isoform B (full-length, wild type) (human, UniProt Q96SN8-4 1-1814); experiment: partitioning into in vitro scaffolds, confocal fluorescence microscopy; GFP::CDK5RAP2 assemblies (120nM) induced with anti-CM2 IgM; mCherry, full-length or ΔIDR mCherry::HSET at 50nM; 50mM KCl, 25mM HEPES; partition coefficient; conditions: both partners purified
T1 construct: CDK5 regulatory subunit-associated protein 2 (CDK5RAP2/CEP215), human, isoform B, Protein ID Q96SN8-4, lacking a.a; 1576-1654 of the longest isoform; Stood in the assays as micron-scale assemblies nucleated by an anti-CM2 IgM; also called CEP215; GFP::CDK5RAP2 scaffolds; source: SF9 insect cells (baculovirus, FlexiBAC), purified (Ni-NTA, MBP trap beads, eluted with PreScission protease)
T1 sequence (Q96SN8 other isoform, or with tags, fused parts or gaps): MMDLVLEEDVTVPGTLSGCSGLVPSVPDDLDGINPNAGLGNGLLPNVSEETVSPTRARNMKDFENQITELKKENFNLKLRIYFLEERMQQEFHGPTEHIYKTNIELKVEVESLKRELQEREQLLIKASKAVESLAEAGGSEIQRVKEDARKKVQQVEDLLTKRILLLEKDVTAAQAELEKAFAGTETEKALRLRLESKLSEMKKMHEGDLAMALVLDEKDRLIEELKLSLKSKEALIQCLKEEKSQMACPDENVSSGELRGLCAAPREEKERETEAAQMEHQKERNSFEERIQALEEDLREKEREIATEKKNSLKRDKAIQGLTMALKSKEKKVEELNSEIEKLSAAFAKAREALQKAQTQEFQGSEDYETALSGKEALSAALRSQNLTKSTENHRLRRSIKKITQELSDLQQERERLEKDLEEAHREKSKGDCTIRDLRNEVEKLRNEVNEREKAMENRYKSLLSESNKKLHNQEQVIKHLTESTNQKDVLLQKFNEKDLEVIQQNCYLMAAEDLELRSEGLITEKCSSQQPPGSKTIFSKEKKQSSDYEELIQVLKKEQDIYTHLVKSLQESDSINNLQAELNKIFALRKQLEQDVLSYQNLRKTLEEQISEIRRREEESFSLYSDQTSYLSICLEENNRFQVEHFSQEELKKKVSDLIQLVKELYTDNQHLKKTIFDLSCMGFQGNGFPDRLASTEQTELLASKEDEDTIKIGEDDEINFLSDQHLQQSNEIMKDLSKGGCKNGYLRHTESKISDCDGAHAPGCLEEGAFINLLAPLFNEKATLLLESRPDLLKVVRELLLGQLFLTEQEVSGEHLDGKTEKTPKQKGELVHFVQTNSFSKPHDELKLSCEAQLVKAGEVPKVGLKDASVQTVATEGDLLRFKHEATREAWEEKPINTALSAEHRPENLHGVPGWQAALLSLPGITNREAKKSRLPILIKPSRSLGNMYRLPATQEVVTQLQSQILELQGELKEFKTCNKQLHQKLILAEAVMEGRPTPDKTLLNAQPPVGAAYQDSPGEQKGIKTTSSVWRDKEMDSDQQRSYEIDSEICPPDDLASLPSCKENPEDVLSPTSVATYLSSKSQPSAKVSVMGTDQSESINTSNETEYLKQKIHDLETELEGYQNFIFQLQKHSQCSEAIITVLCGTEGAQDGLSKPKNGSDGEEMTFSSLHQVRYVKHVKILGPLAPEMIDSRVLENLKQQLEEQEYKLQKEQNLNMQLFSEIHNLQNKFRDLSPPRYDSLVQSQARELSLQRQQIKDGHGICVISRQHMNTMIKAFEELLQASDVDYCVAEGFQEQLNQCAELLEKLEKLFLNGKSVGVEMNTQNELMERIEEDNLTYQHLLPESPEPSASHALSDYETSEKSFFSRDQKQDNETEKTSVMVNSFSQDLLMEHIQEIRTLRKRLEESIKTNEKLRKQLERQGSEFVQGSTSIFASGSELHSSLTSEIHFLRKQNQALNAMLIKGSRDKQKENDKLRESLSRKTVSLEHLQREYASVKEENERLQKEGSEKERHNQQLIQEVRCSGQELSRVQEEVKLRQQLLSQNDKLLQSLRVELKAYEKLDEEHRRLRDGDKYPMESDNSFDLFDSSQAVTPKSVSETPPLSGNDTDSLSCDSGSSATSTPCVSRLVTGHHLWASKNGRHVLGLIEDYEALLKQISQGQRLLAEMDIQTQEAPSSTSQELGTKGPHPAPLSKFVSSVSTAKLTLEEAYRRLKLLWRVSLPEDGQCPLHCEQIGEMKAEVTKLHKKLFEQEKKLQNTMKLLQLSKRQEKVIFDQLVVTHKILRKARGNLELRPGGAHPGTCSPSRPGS

human gamma tubulin ring complex tagged with blue fluorescent protein (mBFP::γ-TuRC), sequence (P23258 whole entry, looked up, one chain of several): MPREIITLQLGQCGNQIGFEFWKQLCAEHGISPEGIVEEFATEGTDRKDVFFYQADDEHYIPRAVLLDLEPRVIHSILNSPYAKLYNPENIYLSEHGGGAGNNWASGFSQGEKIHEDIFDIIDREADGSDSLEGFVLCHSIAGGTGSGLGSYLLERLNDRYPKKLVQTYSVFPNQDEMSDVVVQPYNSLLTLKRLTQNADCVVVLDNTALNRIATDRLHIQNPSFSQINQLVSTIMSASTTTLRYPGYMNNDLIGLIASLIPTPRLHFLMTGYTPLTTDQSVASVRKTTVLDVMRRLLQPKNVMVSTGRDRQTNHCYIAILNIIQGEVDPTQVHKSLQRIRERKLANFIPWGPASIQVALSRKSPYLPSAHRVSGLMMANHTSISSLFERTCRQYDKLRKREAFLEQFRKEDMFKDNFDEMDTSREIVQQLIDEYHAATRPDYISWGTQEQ
GFP::CDK5RAP2 isoform B (full-length, wild type) (human), sequence (Q96SN8 other isoform, or with tags, fused parts or gaps): as the sequence (Q96SN8 other isoform, or with tags, fused parts or gaps) above

Molecule	fold more recruited into scaffolds in the presence of mCherry::HSET (4-component against 3-component) [1] [fold]	binding result [2]
human gamma tubulin ring complex tagged with blue fluorescent protein (mBFP::γ-TuRC) (from UniProt P23258 1-451)	1.4	–
mCherry::HSET (full-length, wild type) (natural protein, human, UniProt Q9BW19 1-673, looked up, HSET/KifC1, kinesin-14 motor protein, human; also called KifC1; HSET/KifC1; source: SF9 insect cells (baculovirus, FlexiBAC), purified (Ni-NTA)) MDPQRSPLLEVKGNIELKRPLIKAPSQLPLSGSRLKRRPDQMEDGLEPEKKRTRGLGATTKITTSHPRVPSLTTVPQTQGQTTAQKVSKKTGPRCSTAIATGLKNQKPVPAVPVQKSGTSGVPPMAGGKKPSKRPAWDLKGQLCDLNAELKRCRERTQTLDQENQQLQDQLRDAQQQVKALGTERTTLEGHLAKVQAQAEQGQQELKNLRACVLELEERLSTQEGLVQELQKKQVELQEERRGLMSQLEEKERRLQTSEAALSSSQAEVASLRQETVAQAALLTEREERLHGLEMERRRLHNQLQELKGNIRVFCRVRPVLPGEPTPPPGLLLFPSGPGGPSDPPTRLSLSRSDERRGTLSGAPAPPTRHDFSFDRVFPPGSGQDEVFEEIAMLVQSALDGYPVCIFAYGQTGSGKTFTMEGGPGGDPQLEGLIPRALRHLFSVAQELSGQGWTYSFVASYVEIYNETVRDLLATGTRKGQGGECEIRRAGPGSEELTVTNARYVPVSCEKEVDALLHLARQNRAVARTAQNERSSRSHSVFQLQISGEHSSRGLQCGAPLSLVDLAGSERLDPGLALGPGERERLRETQAINSSLSTLGLVIMALSNKESHVPYRNSKLTYLLQNSLGGSAKMLMFVNISPLEENVSESLNSLRFASKVNQCVIGTAQANRK	–	binds
